Assay results taken from patent US9988429B2, “Glucagon analogues” (Zealand Pharma A/S, priority 2013, dated 2018).
Starred links: 1 amine or outer side, 2 acyl side, 3 side chain; linkers in the order of their positions; H or OH if unused. Non-standard residues stand in square brackets, D forms with d. Groups on a side chain read outwards from the residue. *: point of attachment. γGlu = O=C(O)[C@H](CCC(=O)[*:2])N[*:1]; Palmitoyl = CCCCCCCCCCCCCCCC(=O)*; Ac3c = NC1(C(=O)O)CC1

Experiments:
Assay in all cases: cell-based or functional assay
[1] = target: human glucagon receptor (Glucagon-R) (human, UniProt P47871 26-477)
Chain of human glucagon receptor (Glucagon-R) (P47871 26-477): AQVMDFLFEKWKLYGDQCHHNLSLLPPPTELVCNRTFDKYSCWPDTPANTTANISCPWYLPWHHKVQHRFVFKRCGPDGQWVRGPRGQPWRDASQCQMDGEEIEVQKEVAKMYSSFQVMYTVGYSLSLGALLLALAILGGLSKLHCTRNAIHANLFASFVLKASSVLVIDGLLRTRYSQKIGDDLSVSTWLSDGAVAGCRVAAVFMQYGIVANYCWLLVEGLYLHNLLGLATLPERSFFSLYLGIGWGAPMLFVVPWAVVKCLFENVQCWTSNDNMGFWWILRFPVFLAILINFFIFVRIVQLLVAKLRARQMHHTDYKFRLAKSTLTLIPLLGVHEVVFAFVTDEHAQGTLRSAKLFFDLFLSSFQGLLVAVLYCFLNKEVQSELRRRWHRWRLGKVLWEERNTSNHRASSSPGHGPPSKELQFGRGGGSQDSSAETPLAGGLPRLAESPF

[2] = target: human glucagon-like peptide 1 receptor (GLP-1R) (human, UniProt P43220 24-463)
[3] = target: T1, endogenous GLP-1 receptor of a murine insulinoma cell line (murine, UniProt O35659 22-463)
T1 sequence (looked up): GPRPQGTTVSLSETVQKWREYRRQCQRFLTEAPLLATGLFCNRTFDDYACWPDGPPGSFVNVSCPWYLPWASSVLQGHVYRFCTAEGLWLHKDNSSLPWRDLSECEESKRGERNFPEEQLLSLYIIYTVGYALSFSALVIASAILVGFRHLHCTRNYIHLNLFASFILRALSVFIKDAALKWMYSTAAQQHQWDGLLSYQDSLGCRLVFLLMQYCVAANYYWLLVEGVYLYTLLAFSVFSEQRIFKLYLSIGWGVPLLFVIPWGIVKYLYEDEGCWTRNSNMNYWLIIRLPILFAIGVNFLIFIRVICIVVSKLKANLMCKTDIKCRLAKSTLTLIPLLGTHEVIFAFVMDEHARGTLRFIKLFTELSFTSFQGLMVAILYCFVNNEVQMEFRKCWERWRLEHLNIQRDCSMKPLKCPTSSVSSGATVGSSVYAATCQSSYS

[4] = target: endogenous glucagon receptor of primary rat hepatocytes (rat, UniProt P30082 27-485)
Chain of endogenous glucagon receptor of primary rat hepatocytes (P30082 27-485): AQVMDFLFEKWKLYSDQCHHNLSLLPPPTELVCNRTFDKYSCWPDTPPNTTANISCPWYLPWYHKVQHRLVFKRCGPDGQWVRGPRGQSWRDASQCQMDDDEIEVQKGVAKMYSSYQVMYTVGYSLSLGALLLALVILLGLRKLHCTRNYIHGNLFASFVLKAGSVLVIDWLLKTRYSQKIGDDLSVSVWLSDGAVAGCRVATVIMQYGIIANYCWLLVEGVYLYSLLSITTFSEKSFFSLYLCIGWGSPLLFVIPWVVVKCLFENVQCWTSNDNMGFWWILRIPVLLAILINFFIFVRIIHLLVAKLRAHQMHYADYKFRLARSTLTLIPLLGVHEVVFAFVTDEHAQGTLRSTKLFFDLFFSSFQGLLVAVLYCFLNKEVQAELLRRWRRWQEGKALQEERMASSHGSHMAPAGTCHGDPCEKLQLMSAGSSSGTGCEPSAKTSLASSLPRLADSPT

Binder | EC50 hGCGR CHO-K1 [nM] (cAMP, AlphaScreen) [1] | EC50 hGLP-1R CHO-K1 [nM] (cAMP, AlphaScreen) [2] | EC50 [nM] (cAMP in murine insulinoma cell line) [3] | EC50 [nM] (inhibition of glycogen synthesis rate in primary rat hepatocytes) [4]
HTQGTFTSDYSKYLDEKAAKDFIEWLESA (position 2 is Abu ((S)-2-aminobutyric acid); Lys17 side chain conjugated to hexadecanoyl-isoGlu; C-terminal amide (NH2)) [Compound 10: H-H-Abu-QGTFTSDYSKYLDE-K(Hexadecanoyl-isoGlu)-AAKDFIEWLESA-NH2] | 0.1 | 0.27 | 0.09 | 2.75
H-HPQGTFTSDYSKYLDEK([γGlu-Palmitoyl])AAKDFIEWLESA-NH2 (SMILES CCCCCCCCCCCCCCCC(=O)N[C@@H](CCC(=O)NCCCC[C@H](NC(=O)[C@H](CCC(=O)O)NC(=O)[C@H](CC(=O)O)NC(=O)[C@H](CC(C)C)NC(=O)[C@H](Cc1ccc(O)cc1)NC(=O)[C@H](CCCCN)NC(=O)[C@H](CO)NC(=O)[C@H](Cc1ccc(O)cc1)NC(=O)[C@H](CC(=O)O)NC(=O)[C@H](CO)NC(=O)[C@@H](NC(=O)[C@H](Cc1ccccc1)NC(=O)[C@@H](NC(=O)CNC(=O)[C@H](CCC(N)=O)NC(=O)[C@@H]1CCCN1C(=O)[C@@H](N)Cc1c[nH]cn1)[C@@H](C)O)[C@@H](C)O)C(=O)N[C@@H](C)C(=O)N[C@@H](C)C(=O)N[C@@H](CCCCN)C(=O)N[C@@H](CC(=O)O)C(=O)N[C@@H](Cc1ccccc1)C(=O)N[C@H](C(=O)N[C@@H](CCC(=O)O)C(=O)N[C@@H](Cc1c[nH]c2ccccc12)C(=O)N[C@@H](CC(C)C)C(=O)N[C@@H](CCC(=O)O)C(=O)N[C@@H](CO)C(=O)N[C@@H](C)C(N)=O)[C@@H](C)CC)C(=O)O) [Compound 13: H-HPQGTFTSDYSKYLDE-K(Hexadecanoyl-isoGlu)-AAKDFIEWLESA-NH2] | 3.19 | 0.21 | 0.14 | 4
H-HSHGTFTSDYSKYLDSK([γGlu-Palmitoyl])AAHDFVEWLLSA-NH2 (SMILES CCCCCCCCCCCCCCCC(=O)N[C@@H](CCC(=O)NCCCC[C@H](NC(=O)[C@H](CO)NC(=O)[C@H](CC(=O)O)NC(=O)[C@H](CC(C)C)NC(=O)[C@H](Cc1ccc(O)cc1)NC(=O)[C@H](CCCCN)NC(=O)[C@H](CO)NC(=O)[C@H](Cc1ccc(O)cc1)NC(=O)[C@H](CC(=O)O)NC(=O)[C@H](CO)NC(=O)[C@@H](NC(=O)[C@H](Cc1ccccc1)NC(=O)[C@@H](NC(=O)CNC(=O)[C@H](Cc1c[nH]cn1)NC(=O)[C@H](CO)NC(=O)[C@@H](N)Cc1c[nH]cn1)[C@@H](C)O)[C@@H](C)O)C(=O)N[C@@H](C)C(=O)N[C@@H](C)C(=O)N[C@@H](Cc1c[nH]cn1)C(=O)N[C@@H](CC(=O)O)C(=O)N[C@@H](Cc1ccccc1)C(=O)N[C@H](C(=O)N[C@@H](CCC(=O)O)C(=O)N[C@@H](Cc1c[nH]c2ccccc12)C(=O)N[C@@H](CC(C)C)C(=O)N[C@@H](CC(C)C)C(=O)N[C@@H](CO)C(=O)N[C@@H](C)C(N)=O)C(C)C)C(=O)O) [Compound 5: H-HSHGTFTSDYSKYLDS-K(Hexadecanoyl-isoGlu)-AAHDFVEWLLSA-NH2] | 0.12 | 0.27 | 0.35 | 0.75
H-H[Ac3c]HGTFTSDYSKYLDSK([γGlu-Palmitoyl])AAHDFVEWLLSA-NH2 (SMILES CCCCCCCCCCCCCCCC(=O)N[C@@H](CCC(=O)NCCCC[C@H](NC(=O)[C@H](CO)NC(=O)[C@H](CC(=O)O)NC(=O)[C@H](CC(C)C)NC(=O)[C@H](Cc1ccc(O)cc1)NC(=O)[C@H](CCCCN)NC(=O)[C@H](CO)NC(=O)[C@H](Cc1ccc(O)cc1)NC(=O)[C@H](CC(=O)O)NC(=O)[C@H](CO)NC(=O)[C@@H](NC(=O)[C@H](Cc1ccccc1)NC(=O)[C@@H](NC(=O)CNC(=O)[C@H](Cc1c[nH]cn1)NC(=O)C1(NC(=O)[C@@H](N)Cc2c[nH]cn2)CC1)[C@@H](C)O)[C@@H](C)O)C(=O)N[C@@H](C)C(=O)N[C@@H](C)C(=O)N[C@@H](Cc1c[nH]cn1)C(=O)N[C@@H](CC(=O)O)C(=O)N[C@@H](Cc1ccccc1)C(=O)N[C@H](C(=O)N[C@@H](CCC(=O)O)C(=O)N[C@@H](Cc1c[nH]c2ccccc12)C(=O)N[C@@H](CC(C)C)C(=O)N[C@@H](CC(C)C)C(=O)N[C@@H](CO)C(=O)N[C@@H](C)C(N)=O)C(C)C)C(=O)O) [Compound 8: H-H-Ac3c-HGTFTSDYSKYLDS-K(Hexadecanoyl-isoGlu)-AAHDFVEWLLSA-NH2] | 1.82 | 0.24 | 0.24 | 1.18
